Experimental data reported in the Human Domainome abundance scans (Beltran et al. 2025).
± gives the uncertainty stated by the source.

B1: Transitional endoplasmic reticulum ATPase, residues 26 to 106; numbered along this chain, P55072 (parent)
chain: LIVDEAINEDNSVVSLSQPKMDELQLFRGDTVLLKGKKRREAVCIVLSDDTCSDEKIRMNRVVRNNLRVRLGDVISIQPCP

Variants of: B1
Assay: abundance fitness (aPCA) (normalised: wild type 0, dead -1); higher = more abundant; growth selection in yeast, the domain comes from the species named
Settings: Homo sapiens

Abundance fitness, by site and new letter:
R70: P -0.327 ± 0.094; W -0.127 ± 0.072; G 0.049 ± 0.056; A 0.043 ± 0.062; Q -0.157 ± 0.12; V -0.076 ± 0.064; D -0.091 ± 0.13; M -0.077 ± 0.092; H -0.152 ± 0.11; L 0.037 ± 0.06; E 0.106 ± 0.092; Y 0.005 ± 0.15; S 0.036 ± 0.062; F -0.184 ± 0.1; N -0.101 ± 0.12; T 0.017 ± 0.085; I -0.242 ± 0.19
N66: I -0.151 ± 0.1; Y -0.176 ± 0.13; T 0.007 ± 0.11; H -0.314 ± 0.14; G -0.021 ± 0.051; C -0.374 ± 0.27; E 0.042 ± 0.084; A -0.071 ± 0.069; V -0.104 ± 0.06; L -0.012 ± 0.066; S -0.044 ± 0.061; M -0.04 ± 0.14; P -0.952 ± 0.2; K 0.086 ± 0.091; F -0.263 ± 0.083; W -0.255 ± 0.092
N65: H -0.038 ± 0.11; F -0.116 ± 0.07; D 0.017 ± 0.11; Q -0.075 ± 0.095; C -0.106 ± 0.095; M -0.054 ± 0.1; P -0.926 ± 0.21; V -0.131 ± 0.063; T -0.07 ± 0.1; R -0.044 ± 0.054; A -0.026 ± 0.067; G -0.066 ± 0.056; L -0.074 ± 0.051; S 0.025 ± 0.062; E -0.02 ± 0.17; Y -0.14 ± 0.14; W -0.157 ± 0.068
R64: F -0.212 ± 0.23; H -0.415 ± 0.1; V -0.321 ± 0.065; P -1.06 ± 0.3; G -0.638 ± 0.08; L -0.044 ± 0.056; Q -0.105 ± 0.1; N -0.458 ± 0.17; C -0.227 ± 0.12; M -0.036 ± 0.16; A -0.023 ± 0.055; T -0.381 ± 0.096; S -0.303 ± 0.072; K -0.365 ± 0.11; I -0.061 ± 0.17; W -0.684 ± 0.18; E -0.65 ± 0.16
V63: C 0.031 ± 0.09; E -0.223 ± 0.14; D 0.029 ± 0.12; M -0.095 ± 0.11; G -0.253 ± 0.058; W -0.342 ± 0.1; R -0.445 ± 0.066; T 0.072 ± 0.12; I 0.029 ± 0.14; P -0.896 ± 0.29; F -0.061 ± 0.14; K -0.433 ± 0.11; L 0 ± 0.061; N -0.276 ± 0.17; A 0.054 ± 0.073
P79: S -0.016 ± 0.069; T -0.11 ± 0.088; D -0.383 ± 0.15; A 0.015 ± 0.063; C -0.099 ± 0.096; F -0.012 ± 0.088; W -0.304 ± 0.093; L -0.044 ± 0.035; I -0.181 ± 0.14; H -0.037 ± 0.11; K 0.113 ± 0.12; E -0.087 ± 0.082; G -0.083 ± 0.06; M -0.076 ± 0.11; Y -0.208 ± 0.12; R -0.106 ± 0.062
V69: C 0.067 ± 0.072; S -0.255 ± 0.072; M -0.032 ± 0.1; Y -0.781 ± 0.35; I -0.022 ± 0.079; H -1 ± 0.43; F -0.717 ± 0.15; Q -0.689 ± 0.085; K -0.514 ± 0.18; T -0.12 ± 0.079; P -1.03 ± 0.3; A -0.045 ± 0.064; R -0.665 ± 0.079; G -0.886 ± 0.097; W -0.987 ± 0.24
V62: F -0.023 ± 0.12; R -0.013 ± 0.056; S 0.051 ± 0.062; L 0.005 ± 0.055; D 0.004 ± 0.12; C 0.029 ± 0.095; I 0.011 ± 0.13; K 0.003 ± 0.092; H 0.038 ± 0.14; N 0.109 ± 0.21; Y -0.195 ± 0.13; W -0.028 ± 0.063; M 0.022 ± 0.087; P -0.378 ± 0.11; A -0.04 ± 0.06; G 0.025 ± 0.052
Q78: M -0.089 ± 0.077; T -0.003 ± 0.077; S -0.031 ± 0.078; G -0.069 ± 0.048; Y 0.024 ± 0.33; E -0.004 ± 0.13; V 0.039 ± 0.064; I -0.023 ± 0.12; H -0.025 ± 0.12; F -0.345 ± 0.12; R -0.071 ± 0.057; P -0.256 ± 0.24; N 0.063 ± 0.48; L -0.01 ± 0.06; C -0.105 ± 0.089; D 0.084 ± 0.087
V74: N 0.034 ± 0.2; D -0.022 ± 0.091; F 0.042 ± 0.078; Q 0.037 ± 0.095; S -0.048 ± 0.064; Y -0.052 ± 0.11; P 0.009 ± 0.095; G -0.085 ± 0.052; C -0.039 ± 0.08; E 0.051 ± 0.11; L -0.117 ± 0.064; I -0.115 ± 0.091; W -0.087 ± 0.091; R 0.036 ± 0.062; K 0.008 ± 0.13; M -0.107 ± 0.093; A 0.031 ± 0.077
C80: D -0.064 ± 0.072; G 0.056 ± 0.039; E -0.095 ± 0.17; F -0.067 ± 0.054; H -0.064 ± 0.14
